US10450368 (DUKE UNIVERSITY, dated 2019)

T1: Scl-70 (UniProt P11387 1-765)
T1 sequence: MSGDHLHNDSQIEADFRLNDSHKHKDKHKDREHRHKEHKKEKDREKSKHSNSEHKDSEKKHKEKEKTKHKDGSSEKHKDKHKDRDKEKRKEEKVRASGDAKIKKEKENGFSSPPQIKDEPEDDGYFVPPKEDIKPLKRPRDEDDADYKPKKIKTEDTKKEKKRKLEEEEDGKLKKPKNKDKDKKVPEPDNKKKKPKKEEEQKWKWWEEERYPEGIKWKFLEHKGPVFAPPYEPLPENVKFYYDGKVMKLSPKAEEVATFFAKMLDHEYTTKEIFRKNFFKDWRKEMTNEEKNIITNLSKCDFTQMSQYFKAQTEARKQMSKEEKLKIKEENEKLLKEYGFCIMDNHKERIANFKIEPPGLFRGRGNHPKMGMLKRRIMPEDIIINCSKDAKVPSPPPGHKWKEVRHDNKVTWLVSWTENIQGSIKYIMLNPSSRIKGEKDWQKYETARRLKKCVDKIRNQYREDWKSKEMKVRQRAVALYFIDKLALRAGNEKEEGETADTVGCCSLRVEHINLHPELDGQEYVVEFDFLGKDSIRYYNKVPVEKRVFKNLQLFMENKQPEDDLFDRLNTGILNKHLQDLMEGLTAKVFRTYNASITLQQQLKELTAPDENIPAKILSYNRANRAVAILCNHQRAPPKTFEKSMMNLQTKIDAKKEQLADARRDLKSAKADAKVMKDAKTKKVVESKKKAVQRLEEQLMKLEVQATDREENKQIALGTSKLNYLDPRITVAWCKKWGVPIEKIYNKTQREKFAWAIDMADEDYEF

T2: SSB (UniProt P05455 1-408)
T2 sequence: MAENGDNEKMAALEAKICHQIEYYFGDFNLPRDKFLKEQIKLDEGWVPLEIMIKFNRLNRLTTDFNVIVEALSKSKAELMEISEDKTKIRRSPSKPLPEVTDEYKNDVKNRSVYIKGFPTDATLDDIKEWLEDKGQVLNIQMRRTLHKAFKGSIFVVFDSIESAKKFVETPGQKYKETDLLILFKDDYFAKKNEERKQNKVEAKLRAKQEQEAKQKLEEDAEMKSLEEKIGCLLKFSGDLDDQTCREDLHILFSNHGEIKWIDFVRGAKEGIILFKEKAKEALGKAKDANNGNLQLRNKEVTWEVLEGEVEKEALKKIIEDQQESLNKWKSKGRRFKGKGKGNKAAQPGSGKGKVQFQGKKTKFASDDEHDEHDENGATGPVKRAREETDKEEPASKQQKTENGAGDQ

T3: Jo-1 (UniProt P12081 1-509)
T3 sequence: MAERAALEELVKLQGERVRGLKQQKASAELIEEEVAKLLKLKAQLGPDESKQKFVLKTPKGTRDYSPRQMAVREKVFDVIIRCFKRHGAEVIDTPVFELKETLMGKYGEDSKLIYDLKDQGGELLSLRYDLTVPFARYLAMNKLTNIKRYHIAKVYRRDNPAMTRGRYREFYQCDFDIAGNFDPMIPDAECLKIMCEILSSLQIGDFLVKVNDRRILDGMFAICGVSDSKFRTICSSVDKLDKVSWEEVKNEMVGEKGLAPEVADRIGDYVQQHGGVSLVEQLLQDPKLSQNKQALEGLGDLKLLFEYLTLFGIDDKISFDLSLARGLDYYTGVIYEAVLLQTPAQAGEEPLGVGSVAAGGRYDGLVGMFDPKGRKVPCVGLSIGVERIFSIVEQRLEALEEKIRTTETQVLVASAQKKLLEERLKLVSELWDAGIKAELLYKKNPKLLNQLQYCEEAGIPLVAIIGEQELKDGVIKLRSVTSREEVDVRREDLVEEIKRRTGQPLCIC


Assays:
CH0505_CON D7gp120/293i = experiment: ELISA
CH505w020.14D8gp120 = target: T4, CH505w020.14D8gp120; experiment: ELISA
T4 construct: also called CH505w20.14 gp120

CH505w030.20D8gp120/293F = target: T5, CH505w030.20D8gp120/293F; experiment: ELISA
T5 construct: also called CH505w30.20 gp120

CH505.w30.12D8gp120 = target: T6, CH505.w30.12D8gp120; experiment: ELISA
T6 construct: also called CH505w30.12 gp120

CH505w136.B18D8gp120 = experiment: ELISA
CH505.M5D8gp120293F = experiment: ELISA
CH505.M10D8gp120 = experiment: ELISA
CH505.M11D8gp120/293F = experiment: ELISA
CH505.M19D8gp120 = experiment: ELISA
CH505.M21D8gp120/293F = experiment: ELISA
CH505.M9D8gp120/293F = experiment: ELISA
CH505.M7D8gp120/293F = experiment: ELISA
CH505.TF mutant gp120 M6 = target: T7, CH505.TF mutant gp120 M6 (HIV-1); experiment: ELISA
T7 construct: domain: gp120

CH505.TF mutant gp120 M8 = target: T8, CH505.TF mutant gp120 M8 (HIV-1); experiment: ELISA
T8 construct: domain: gp120

[1] = target: T9, CH505.TF mutant gp120 M20 (HIV-1); experiment: ELISA
T9 construct: domain: gp120

RNP (ribonucleoprotein) = target: T10, RNP (ribonucleoprotein); experiment: AtheNA, Ab 25 ug/ml
T10 construct: Protein-RNA complex

Scl-70 [2] = target: T1, Scl-70; experiment: AtheNA, Ab 25 ug/ml
SSB = target: T2, SSB; experiment: ELISA, LogAUC grade
Scl-70 [3] = target: T1, Scl-70; experiment: ELISA, LogAUC grade
Jo-1 = target: T3, Jo-1; experiment: ELISA, LogAUC grade
[4] = target: T11, HIV-1 CH505 transmitted/founder gp120 Env (HIV-1); experiment: competition ELISA, blocking of CH106 binding to gp120
T11 construct: domain: gp120; also called CH505.TF gp120; CH505 TF gp120 Env

Row | Binder | LogAUC (CH0505_CON D7gp120/293i) | LogAUC (CH505w020.14D8gp120) | LogAUC (CH505w030.20D8gp120/293F) | LogAUC (CH505.w30.12D8gp120) | LogAUC (CH505w136.B18D8gp120) | LogAUC (CH505.M5D8gp120293F) | LogAUC (CH505.M10D8gp120) | LogAUC (CH505.M11D8gp120/293F) | LogAUC (CH505.M19D8gp120) | LogAUC (CH505.M21D8gp120/293F) | LogAUC (CH505.M9D8gp120/293F) | LogAUC (CH505.M7D8gp120/293F) | LogAUC (CH505.TF mutant gp120 M6) | LogAUC (CH505.TF mutant gp120 M8) | LogAUC [1] | AtheNA signal (RNP (ribonucleoprotein)) | AtheNA signal (Scl-70 [2]) | binding result (SSB) | binding result (Scl-70 [3]) | binding result (Jo-1) | further results
1 | CH493 (antibody, V domains shown, also called CH235.9; DH493) VH: QVRLLQYGGGVKRPGASMTISCVASGYNFNDYYIHWVRQAPGQGLELMGWIDPSGGRTDYAGAFGDRVSMYRDKSMNTLYMDLRSLRSGDTAMYYCVRNVGTAGSLLHYDHWGLGVMVTVSS VL: EIVLTQSPATLSVSPGERVTLSCRASQSVRNNLAWYRQKRGQAPRLLIYGASTRATGIPARFSGSGSGTEFTLTISSMQSEDFAVYYCQQYNNWWTFGQGTKVEIK | 8.67 | 8.15 | 8.09 | 3.17 | 5.76 | 9.26 | 10.2 | 8.26 | 5.95 | 1.13 | 1.31 | 0.8 | 8.11 | 4.36 | 1.04 |  |  |  |  |  | 
2 | CH235 (antibody, V domains shown, also called CH235_4A) VH: QVQLVQSGAEVKKPGASVTVSCQASGYTFTNYYVHWVRQAPGQGLQLMGWIDPSWGRTNYAQNFQGRITMTRDTSTSTVYMEMRSLRSEDTAVYYCARNVATEGSLLHYDYWGQGTLVTVSA VL: EIVLTQSPATLSVSPGERATLSCRASQSVRSNLAWYQQRPGQAPRLLIYGTSTRATGVPARFSGRGSGTEFTLAISSMQSEDFAVYLCLQYNNWWTFGQGTKVEIK | 9.73 | 9.91 | 8.33 | 7.28 | 7.53 | 11.4 | 10.6 | 7.59 | 7.13 | 0 | 0 | 0 | 9.46 | 0 | 0 | 5 relative luminescence units | 4 relative luminescence units | no binding | no binding | no binding | IC50 [4]: 16.5 µg/mL
3 | CH241 (antibody, V domains shown) VH: QVQLVQSGAAVKKPGASVRVSCKASGYTFTSSHIHWVRQAPGQGPEWMGMIDPSVGRPTTAGKFQGRVTMTRDRYTSTAYMDLSSLRSEDTAVYYCARSVETTGSLLYFDYWGQGTLITVSS VL: EIVLTQSPATLSVSPGERATLSCRASQSVRSNIAWYQQKPGQAPRLLIHGASTRATGIPGRFSGSGSGPEFTLAISSVQSEDFAVYYCQQYNDWWTFGQGTKVEIK | 13.3 | 13.1 | 8.03 | 9.6 | 0.89 | 14.5 | 14.4 | 9.68 | 10.4 | 4.82 | 0 | 0 | 13.2 | 2.18 | 2.15 | 6 relative luminescence units | 4 relative luminescence units | no binding | no binding | no binding | IC50 [4]: 1.5 µg/mL
4 | CH557 (antibody, V domains shown, also called CH235.12; CH557_4A/293i) VH: QVRLAQYGGGVKRLGATMTLSCVASGYTFNDYYIHWVRQAPGQGFELLGYIDPANGRPDYAGALRERLSFYRDKSMETLYMDLRSLRYDDTAMYYCVRNVGTAGSLLHYDHWGSGSPVIVSS VL: EIVLTQSPATLSASPGERVTLTCRASRSVRNNVAWYQHKGGQSPRLLIYDASTRAAGVPARFSGSASGTEFTLAISNLESEDFTVYFCLQYNNWWTFGQGTRVDIK | 8.39 | 8.33 | 8.59 | 2.37 | 8.31 | 8.2 | 7.63 | 7.71 | 4.61 | 0.19 | 0.38 | 0.69 | 8.21 | 1.14 | 0 |  |  | no binding | no binding | no binding | 
